Assay results from PMC8323898, “Examination of the roles of a conserved motif in the PriA helicase in structure-specific DNA unwinding and processivity”.

Key:
PriA wild-type [1] = target: T1, PriA wild-type (Escherichia coli, UniProt P17888 1-732); assay: EMSA; three shifted bands; 5 mM EDTA; EMSA: 0.1-10 nM PriA, 1 nM fork, 50 mM Tris-HCl pH 8.0, 0.1 mg/mL BSA, 2 mM DTT, 5 mM EDTA, 6% glycerol, 30 min on ice, 4% PAGE; conditions: protein: recombinant; tags: N-terminal His6; label: radiolabel; fork 1:2, 60 bp parental duplex, two 38-nt ssDNA arms
PriA Trp186Ala [2] = target: T2, PriA Trp186Ala (Escherichia coli, UniProt P17888 1-732, W186A); assay: EMSA; same as wild type; 5 mM EDTA; EMSA: 0.1-10 nM PriA, 1 nM fork, 50 mM Tris-HCl pH 8.0, 0.1 mg/mL BSA, 2 mM DTT, 5 mM EDTA, 6% glycerol, 30 min on ice, 4% PAGE; conditions: protein: recombinant; tags: His-tag; label: radiolabel; fork 1:2, 60 bp parental duplex, two 38-nt ssDNA arms
PriA Tyr190Ala [3] = target: T3, PriA Tyr190Ala (Escherichia coli, UniProt P17888 1-732, Y190A); assay: as above; conditions: protein: recombinant; tags: His-tag; label: radiolabel; fork 1:2, 60 bp parental duplex, two 38-nt ssDNA arms
PriA Arg187Ala [4] = target: T4, PriA Arg187Ala (Escherichia coli, UniProt P17888 1-732, R187A); assay: as above; conditions: protein: recombinant; tags: His-tag; label: radiolabel; fork 1:2, 60 bp parental duplex, two 38-nt ssDNA arms
PriA triple variant [5] = target: T5, PriA triple variant (Escherichia coli, UniProt P17888 1-732, W186A;R187A;Y190A); assay: as above; conditions: protein: recombinant; tags: His-tag; label: radiolabel; fork 1:2, 60 bp parental duplex, two 38-nt ssDNA arms
PriA wild-type [6] = target: T1, PriA wild-type; assay: EMSA; one dominant shifted species; 5 mM EDTA; EMSA: 0.1-10 nM PriA, 1 nM fork, 50 mM Tris-HCl pH 8.0, 0.1 mg/mL BSA, 2 mM DTT, 5 mM EDTA, 6% glycerol, 30 min on ice, 4% PAGE; conditions: protein: recombinant; tags: N-terminal His6; label: radiolabel; fork 1:2 (60 bp) 2:3 (33 bp nascent lagging) 1:4 (38 bp nascent leading), 5-nt lagging gap
PriA Trp186Ala [7] = target: T2, PriA Trp186Ala; assay: EMSA; similar to wild type; 5 mM EDTA; EMSA: 0.1-10 nM PriA, 1 nM fork, 50 mM Tris-HCl pH 8.0, 0.1 mg/mL BSA, 2 mM DTT, 5 mM EDTA, 6% glycerol, 30 min on ice, 4% PAGE; conditions: protein: recombinant; tags: His-tag; label: radiolabel; fork 1:2 (60 bp) 2:3 (33 bp nascent lagging) 1:4 (38 bp nascent leading), 5-nt lagging gap
PriA Tyr190Ala [8] = target: T3, PriA Tyr190Ala; assay: as above; conditions: protein: recombinant; tags: His-tag; label: radiolabel; fork 1:2 (60 bp) 2:3 (33 bp nascent lagging) 1:4 (38 bp nascent leading), 5-nt lagging gap
PriA Arg187Ala [9] = target: T4, PriA Arg187Ala; assay: as above; conditions: protein: recombinant; tags: His-tag; label: radiolabel; fork 1:2 (60 bp) 2:3 (33 bp nascent lagging) 1:4 (38 bp nascent leading), 5-nt lagging gap
PriA triple variant [10] = target: T5, PriA triple variant; assay: as above; conditions: protein: recombinant; tags: His-tag; label: radiolabel; fork 1:2 (60 bp) 2:3 (33 bp nascent lagging) 1:4 (38 bp nascent leading), 5-nt lagging gap

Measured: binding result

B1: two-stranded fork (1b-98/3L-98) (mixed)
DNA 1: GCAAGCCTTCTACAGGTCGACCGTCCATGGCGACTCGAGACCGCAATACGGATAAGGGCTGAGCACGCCGACGAACATTCACCACGCCAGACCACGTA
DNA 2: GACTATCTACGTCCGAGGCTCGCGCCGCAGACTCATTTAGCCCTTATCCGTATTGCGGTCTCGAGTCGCCATGGACGGTCGACCTGTAGAAGGCTTGC
binds: PriA wild-type [1] | PriA Trp186Ala [2] | PriA Tyr190Ala [3] | PriA Arg187Ala [4] | PriA triple variant [5]

B2: four-stranded fork (1b-98/3L-98/b-33/11b-38) (mixed)
DNA 1: GCAAGCCTTCTACAGGTCGACCGTCCATGGCGACTCGAGACCGCAATACGGATAAGGGCTGAGCACGCCGACGAACATTCACCACGCCAGACCACGTA
DNA 2: GACTATCTACGTCCGAGGCTCGCGCCGCAGACTCATTTAGCCCTTATCCGTATTGCGGTCTCGAGTCGCCATGGACGGTCGACCTGTAGAAGGCTTGC
DNA 3: AGTCTGCGGCGCGAGCCTCGGACGTAGATAGTC
DNA 4: TACGTGGTCTGGCGTGGTGAATGTTCGTCGGCGTGCTC
binds: PriA wild-type [6] | PriA Trp186Ala [7] | PriA Tyr190Ala [8] | PriA Arg187Ala [9] | PriA triple variant [10]
